A short description of the data set: yeast display, Sf9 membrane polyspecificity reagent, FACS + sequencing; frameworks hold sequencing errors. Summed up:
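Synthetic nanobody libraries on Saccharomyces cerevisiae BJ5465 were galactose-induced for 36–48 hours, stained 1 hour at 4 °C with 10% biotinylated, detergent-solubilized Sf9 membrane reagent and enriched on streptavidin microbeads. FACS then separated cells into low and high (top ~1%) gates by anti-HA (expression) and streptavidin (reagent binding) fluorescence. Genes were colony-PCR amplified, MiSeq 2 × 250 sequenced and CDR-length filtered. A clone's polyreactivity label is that of its gate of origin.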
Regarding “QVQLVESGGGLVQAGGSLRLICAASGRTFYRNDMGWSRQAPGKERELVAAISGSGGTTYYADSVKGRFTISRYNAKNTVYLQMNSLNPEDTAVDYCAVDGNFFGEVRPYDYWGQGTQVTVSS”, the “polyreactivity (PSR sort gate)” value is “low polyreactivity”.

In the case of “QVQLVESGGGLVQAGGSLRLICAASGRTFYYYGMGWYRQAPGKERELVASITNGGNTNYADSVKGRFTISRDNAKNPVYLQKHSLYPEDTAVYYCAKDVPYWRPVVRYDYWGQGTQVTVSS”, the “polyreactivity (PSR sort gate)” value is “low polyreactivity”. The result for “QVQLVESGGGLVQAGGSLRLICAASGRTLWWYAMGWYRQAPGKESELVAAIDYSDGNTYYADSVKGRFTISRDYAKNTVYLQMNSLKPEDTAVYFCAAEGYYNYGSYYWGQGTQVTVSS” reads “high polyreactivity”; that for “QVQLVESGGGLVQAGGSLRLICAASGRTLYLYAMGWSRQAPGKEPELVAAIDWRGTSTYYADSVKGRFTISRDNAKNTVYLQMNSLKPEDTAFYYCNARFRSYLRWYQRDYWGQGTQVTVSS”, “low polyreactivity”; that for “QVQLVESGGGLVQAGGSLRLICAASGRTYHYYTLGWYRQSPGKERELVARISLGVGSTYYADSVKGRFTISRDNAKNTVDLQMYTLIPEDTAVYYCNAVWYKSFVKGVYGRVDWGQGTQVTVSS”, “low polyreactivity”. The result for “QVQLVESGGGLVQAGGSLRLICAASGSIFPFYAMGWYRQEPGKERELVAAITYSGGRTYYADSVKGRFTISRDNAKNTVYLQMNSLKPEDTAVYYCAVVVIFVRYGYWGQGTQVTVSS” reads “low polyreactivity”; that for “QVQLVESGGGLVQAGGSLRLICAASGSIFRLYAMGWYRPAPGKEREFVARIRWRGGSTNYADSVKGRFTISRDNAKNTVYLQMNCLKPVDTAVYYCAAKQGTVRAHTYVAWYDYWGQGTQVTVSS”, “high polyreactivity”; that for “QVQLVESGGGLVQAGGSLRLICAASGSIFRLYAMGWYRQAPGKERELVAAIRWSGGRTYYADSVKGRFTISRDNAKNTVYLQMNSLKPEDTAVYYCAADYYLPAYPPQTFGYWGQGTQVTVSS”, “high polyreactivity”. On to “QVQLVESGGGLVQAGGSLRLICAASGSIFRSYAMGWYRPAPGKERELVAAISSGGRTKYADSVKGRLTISRDNAKNTVYLQMNSLKPEDSAVYYCAARSVSATADFHYWGQGTQVTVSS”, for which the “polyreactivity (PSR sort gate)” value is given as “high polyreactivity”. For “QVQLVESGGGLVQAGGSLRLICAASGSIFRYYTMGWYRQGPGKERELVARISSSGSTNYADSVKGRFTISRDNAKNTVYLQMNSLKPEDTEVYYCAARAFSWAGYYYWGQGTQVTLSS” the value was “low polyreactivity”; for “QVQLVESGGGLVQAGGSLRLICAASGSIFSGYAMGWYRQAPGKERELVAAITTSGGSTYYADSVKGRFTISRENAKNTVYLPMNSLNPEDTSVYYCAAGWLYSRYARVYYWGQGTQVTLSS”, “high polyreactivity”; for “QVQLVESGGGLVQAGGSLRLICAASGSIFTSNVMGWYRQSPGKERELVAAITITGTTNYADSVKGRFTISRDNAKYTVYLLMNSLKPEDTAVYDCAARHKQHNRYDYWGQGTQVTVSS”, “low polyreactivity”.

For “QVQLVESGGGLVQAGGSLRLICAASGSIFVGYAMGWYRQAPGKERELVAAISSNGGSTYYAYSVKGRFTISRDNAKNTVYLQMNSLKPEDTAVYYCAAGVRRVYASGHGAYGYWGQGTQVTVSS”, the “polyreactivity (PSR sort gate)” value is on record as “low polyreactivity”. The result for “QVQLVESGGGLVQAGGSLRLICAASGSIFVLNAMGWYRQAPGKERELVAAITSGGSTYYADSVKGRFTISRDNAKNTVYLQMISLKPEDTAVYYCNALDLSPSYKYDYWGQGTQVTVSS” reads “low polyreactivity”; that for “QVQLVESGGGLVQAGGSLRLICAASGSIFWAYAMGWYRQAPGKERELVAAISSSGGRTYYADSVKGRFTISRDNAKNTVYFQMNSLNPEDTAVYYCAARSYSGYSPTFDYWGQGTQVTVSS”, “high polyreactivity”. For “QVQLVESGGGLVQAGGSLRLICAASGSIFYVYAMGWYRQSPGKERELDAAINTSGGSTFYADSVKGRFTISRDNAKNTVYLQMNSLKPEDTAVYYCAAERYRYRSTDTMGYWGQGTQVTVSS” the value was “low polyreactivity”; for “QVQLVESGGGLVQAGGSLRLICAASGSIITGYPMGWYRQAPGKERELVAGINSGTSTNFADSVKGRFTISRDNAKNTVFLQMNSMKPEDTAVYYCAKTAERRHYGVYRFDYWGQGTQVTVSS”, “low polyreactivity”; for “QVQLVESGGGLVQAGGSLRLICAASGSILDGNTMGWYRQAPGKERELVAAITWDGTSTYFADSVKGRFTISRDNAKNTVYLQMNSLKPEDTAVYYCAATKGYSDPSTGYYAYIHYDYWGQGTQVTVSS”, “low polyreactivity”. The result for “QVQLVESGGGLVQAGGSLRLICAASGSILSTYAMGWYREAPGKERELVADISGRVGSTYYADSVKGRFTISRDNAKNTDYLQMNSLKPEDTAVYYCAAALDYWPGYEYYYWGQGTQVTVSS” reads “low polyreactivity”; that for “QVQLVESGGGLVQAGGSLRLICAASGSISYYNAMGRYRQAPGKERELVADITSGGGTYYADSVMGGFTISRDNAKNTVFLQMNSLKPEDTAVYYCAKDYGFTGYGYWGQGTQVTVSS”, “low polyreactivity”; that for “QVQLVESGGGLVQAGGSLRLICAASGSNFVGYAMGWYRQAPGKERELVAAISRTGASTYYADSVKGRFTISRDNAKNTVYLQMNSLKPEDTAVYYCAYYYSIYDYWGQGTQVTVSS”, “high polyreactivity”. On to “QVQLVESGGGLVQAGGSLRLICAASGSTFASYAMGWYRQAPGKERELVAAITRRGGSTYYADSVKGRFTISRDNAKNTVYLQMNSLKPEDTAVYYCAAKWTPATYKFDYWGQGTQVTVSS”, for which the “polyreactivity (PSR sort gate)” value was “high polyreactivity”.

As for “QVQLVESGGGLVQAGGSLRLICAASGSTFELYAMGWYRQAPGKEREFVAAITYDSTYYADSVKGRFTISRDNAKNTVYLQMNSLKPEDTAVYYCAAAYWHYYYGWDMYYWGQGTQVTVSS”, the “polyreactivity (PSR sort gate)” value is “high polyreactivity”. The result for “QVQLVESGGGLVQAGGSLRLICAASGSTFEYSTMGWYRPAPGKERELVAAINSSGGRTYYADSVKGRFTISRDNAKNTVYLQMNSLKPEDTAVYYCNARWRSGPRAYDYWGQGTQVTLSS” reads “high polyreactivity”; that for “QVQLVESGGGLVQAGGSLRLICAASGSTFFDYAMGGYRQAPGKEREFVADIYSNGGSTYYADSVKGRFTFSRDNAKNSVYLQMNSLKPEDTAGYYCAAVLRPRQGRRYDYWGQGTQVTVSS”, “low polyreactivity”. For “QVQLVESGGGLVQAGGSLRLICAASGSTFFSYAMGWYRPAPGKERQLVAAITRSGGSTYYADSVKGRFTISRDNAKNTVFLQMNSLKPEDTAVYYCNADLGIGYDYWGQGTHVTVSS” the value was “high polyreactivity”. With “QVQLVESGGGLVQAGGSLRLICAASGSTFGPNGMGWYRQAPGKERELVARIDRIGGGTYYADSVKGRFTISRDNAKNTVYLQMNSLKPEDTAVYYCAADGPSPFIQGYAKGDYWGQGTQVTVSS”, the “polyreactivity (PSR sort gate)” value is “low polyreactivity”. For “QVQLVESGGGLVQAGGSLRLICAASGSTFGPYDMGWYRQAPGKERELVADITSGGSTYYADSVKGRFTISRDNAKNTVYLQMNSLKPEDTAVYYCAADRVWPYYQYDYWGQGTQVTVSS” the value was “low polyreactivity”; for “QVQLVESGGGLVQAGGSLRLICAASGSTFGRNAMGWYRQAPGKERELVAAITASGGTTYYADSVKGRFTISRDNAKNTVYLQMNSLKPEDTAVYYFARAGHFSFKYDYWGQGTQVTVSS”, “low polyreactivity”. The result for “QVQLVESGGGLVQAGGSLRLICAASGSTFGWYAMGWYRQAPGQERELVAAISWGGGSTYYADSVKGRFTISRDNAKNTVYLQMNSLKPEVTAVYYCAKVPLTYSRSGYEYDYWGQGTQVTVSS” reads “low polyreactivity”. With “QVQLVESGGGLVQAGGSLRLICAASGSTFHTYAMGWYRQAPGKERELVATITWDGGRTYYADSVKGRFTISRDNAKNTVYLQMNSLKPEDPAVYYCAADYWSIEMDYWGQGTQVTVSS”, the “polyreactivity (PSR sort gate)” value was “low polyreactivity”. For “QVQLVESGGGLVQAGGSLRLICAASGSTFKRYAMGWYRQAPGKERELVAAISLSSGSTYYADSVKGRFTISRDNAKNTVYLQMNSLKPEDTAVYYCNAAKTYPDVYEYDYWGQGTQVTVSS” the value was “high polyreactivity”; for “QVQLVESGGGLVQAGGSLRLICAASGSTFKYNAMGWYRQAPGKERELVAAISSGGSTNYADSVKGRFTISRDNAKNTVYLQMHSLKPEDTAVYYCNAAYNYVTPWYFYWGQGTQVTVSS”, “high polyreactivity”.

On to “QVQLVESGGGLVQAGGSLRLICAASGSTFQDNAMGWYRQAPGKERELVASISSVDSTNYADSVKGRFTISRDNAQNTVYLQMNSLKPEDTAVYYCNAAHPYRRVGSFTYKYDYWGQGTQVTVSS”, for which the “polyreactivity (PSR sort gate)” value was “low polyreactivity”. The result for “QVQLVESGGGLVQAGGSLRLICAASGSTFRHYAMGWYRQAPGKERELVAAIRRSGGTTYYADSVKGRFTISRDNAKNTVYLHMNSLKPEDTAVYYCAARLTVRKLVRFDYWGQGTQVTVSS” reads “low polyreactivity”; that for “QVQLVESGGGLVQAGGSLRLICAASGSTFSAYVMGWYRQAPGKERKLVAAITRSGVSTYYADSVKGRFTISRDNAKNTVYLQMNSLKPEDTAVYYCARRAKGAYWNEYNYWGQGTQVTVSS”, “high polyreactivity”.

With “QVQLVESGGGLVQAGGSLRLICAASGSTFTRYAMGWYRQAPGKERELVAAINSSGGRTYYADSVKGRFTISRDNAKNTVYLQMNSLKPEDTAVYYFAATRGRYREDEDYWGQGTQVTVSS”, the “polyreactivity (PSR sort gate)” value was “high polyreactivity”. For “QVQLVESGGGLVQAGGSLRLICAASGSTFTRYAMGWYRQAPRKERELVAAISRGGSTNYADSVKGRFTISRDNAKNTVYLQMNSLKPEDTAVYYCAAARYRYYLGFGYDYWGQGTQVTVSS” the value was “high polyreactivity”; for “QVQLVESGGGLVQAGGSLRLICAASGSTFYSNAMGWYRQAPGKERELVAAINYSGGGTYYADSVKGRFTISRDNAKNTVYLQMNSLKPEDTAVYYCAADGSYVHWEYGYWGQGTQVTVSS”, “low polyreactivity”. “QVQLVESGGGLVQAGGSLRLICAASGSTFYSYAMGWYRQAPGKERELVAVISWSGGSTYYADSVKGRFTISRDNAKNTVYLQMNSLKPEDTAVYYCAAESYYSDDWYYAYYYWGQGTQVTVSS”: the “polyreactivity (PSR sort gate)” value was “high polyreactivity”. For “QVQLVESGGGLVQAGGSLRLICAASGSTIGGYVMGWYRQAPGKERELVAAISRSGASTYYADSVKGRFTISRDNAKNTVYLQMNSLKQEDTAVYYCAAYQARGMDYWGQGTQVTVSS” the value was “high polyreactivity”.
